From publication PMC6293271, “Bactericidal/Permeability-Increasing Protein Is an Enhancer of Bacterial Lipoprotein Recognition” (Frontiers in Immunology, 2018)

Experiments:
[1] = tested on: HEK293T cells expressing TLR2 and CD14; assay: Stimulation of HEK293T cells transfected with human TLR2 and CD14, IL-8 ELISA; assay type: cell-based; conditions: HEK293T expressing TLR2 and CD14, (R)-Pam3CSK4 ± BPI, 24 h
Protocol: HEK293T cells were transfected using the calcium phosphate mediated method according to a published protocol ([45]). Transfections were performed using plasmid vectors for human TLR2 and human CD14 (both a kind gift of Carsten Kirschning, University of Duisburg-Essen, Germany) at concentrations of 0.4 and 0.05 μg/ml, respectively. A GFP encoding plasmid (0.4 μg/ml) was used as control. For stimulation, transfected HEK293T cells were cultured at 2 × 10^5 cells/ml in 96-well plates and stimulated with (R)-Pam3CSK4 ± BPI. After 24 h, supernatants were collected and analyzed for secretion of IL-8 by ELISA (DuoSet® ELISA human CXCL8/IL-8, R&D, Minneapolis, MN, USA).

PBMCs = assay: Stimulation of human PBMCs, cytokine ELISA of supernatants; assay type: cell-based; conditions: for TNFα secretion: 18 h
Protocol: After informed consent, blood was drawn from healthy male volunteers using heparinized blood collection tubes (Li-Heparin-Gel-Monovette, Sarstedt, Nümbrecht, Germany) and diluted in RPMI 1640 (Biochrom, Berlin, Germany) at a ratio of 1:1.5. The blood was centrifuged in leucosep tubes containing Ficoll® Paque plus (Oxford Immunotec, Abingdon, Great Britian) at 1,000 × g for 10 min. The interphase containing the leukocytes was collected and subsequently washed twice with RPMI 1640. The pellet was resuspended in AIM V® Medium (Thermo Fisher Scientific, Waltham, MA, USA), counted and cultivated in 96-well plates for 4 h (1 × 10^5/100 μl). Then cells were stimulated with the indicated compounds in the presence or absence of BPI. The supernatants were collected after 18 h for determination of cytokine concentration by ELISA according to the manufacturer's instructions (OptEIA^TM Human TNFα ELISA Set and OptEIA^TM Human IL6 ELISA, BD Biosciences, Heidelberg, Germany; DuoSet® ELISA human CXCL8/IL-8, R&D, Minneapolis, MN, USA).

B1: rBPI: recombinant human BPI (aa 32-487) with C-terminal FLAG Tag expressed in HEK293T cells (protein)
chain: VNPGVVVRISQKGLDYASQQGTAALQKELKRIKIPDYSDSFKIKHLGKGHYSFYSMDIREFQLPSSQISMVPNVGLKFSISNANIKISGKWKAQKRFLKMSGNFDLSIEGMSISADLKLGSNPTSGKPTITCSSCSSHINSVHVHISKSKVGWLIQLFHKKIESALRNKMNSQVCEKVTNSVSSELQPYFQTLPVMTKIDSVAGINYGLVAPPATTAETLDVQMKGEFYSENHHNPPPFAPPVMEFPAAHDRMVYLGLSDYFFNTAGLVYQEAGVLKMTLRDDMIPKESKFRLTTKFFGTFLPEVAKKFPNMKIQIHVSASTPPHLSVQPTGLTFYPAVDVQAFAVLPNSSLASLFLIGMHTTGSMEVSAESNRLVGELKLDRLLLELKHSNIGPFPVELLQDIMNYIVPILVLPRVNEKLQKGFPLPTPARVQLYNVVLQPHQNFLLFGADVVYK
modifications: labelled with NT647 (NHS labelling kit) in the MST experiments only; left off: HA signal peptide, N-terminal, state not stated | FLAG, C-terminal, state not stated
notes: recombinant human BPI (aa 32-487) with C-terminal FLAG Tag expressed in HEK293T cells
[1]
  enhancement of immune stimulation of bLPs (IL-8): not sufficient to enhance
PBMCs; PBMCs stimulated with (R)-FSL-1, increasing rBPI concentration
  TNFα secretion: gradually enhanced
PBMCs; PBMCs stimulated with (R)-Pam3CSK4, increasing rBPI concentration
  TNFα secretion: gradually enhanced
PBMCs; PBMCs stimulated with lysate of S. pneumoniae D39Δcps, seven donors, BPI 500 nM
  TNFα, IL-6, and IL-8 secretion: remarkable increase
PBMCs; PBMCs stimulated with lysates of S. aureus 113, BPI 500 nM
  TNFα, IL-6, and IL-8 secretion: also increased
PBMCs; PBMCs, BPI incubated with LTA SPΔlgt compared to LTA SPΔlgt alone
  secretion of TNFα: increased secretion of TNFα
